Molecular target: T1, biotinylated Mouse FAP extracellular domain (mouse, UniProt P97321 26-761, biotinylated (site not stated))
T1 construct: extracellular domain; also called murine antigen
T1 sequence (looked up): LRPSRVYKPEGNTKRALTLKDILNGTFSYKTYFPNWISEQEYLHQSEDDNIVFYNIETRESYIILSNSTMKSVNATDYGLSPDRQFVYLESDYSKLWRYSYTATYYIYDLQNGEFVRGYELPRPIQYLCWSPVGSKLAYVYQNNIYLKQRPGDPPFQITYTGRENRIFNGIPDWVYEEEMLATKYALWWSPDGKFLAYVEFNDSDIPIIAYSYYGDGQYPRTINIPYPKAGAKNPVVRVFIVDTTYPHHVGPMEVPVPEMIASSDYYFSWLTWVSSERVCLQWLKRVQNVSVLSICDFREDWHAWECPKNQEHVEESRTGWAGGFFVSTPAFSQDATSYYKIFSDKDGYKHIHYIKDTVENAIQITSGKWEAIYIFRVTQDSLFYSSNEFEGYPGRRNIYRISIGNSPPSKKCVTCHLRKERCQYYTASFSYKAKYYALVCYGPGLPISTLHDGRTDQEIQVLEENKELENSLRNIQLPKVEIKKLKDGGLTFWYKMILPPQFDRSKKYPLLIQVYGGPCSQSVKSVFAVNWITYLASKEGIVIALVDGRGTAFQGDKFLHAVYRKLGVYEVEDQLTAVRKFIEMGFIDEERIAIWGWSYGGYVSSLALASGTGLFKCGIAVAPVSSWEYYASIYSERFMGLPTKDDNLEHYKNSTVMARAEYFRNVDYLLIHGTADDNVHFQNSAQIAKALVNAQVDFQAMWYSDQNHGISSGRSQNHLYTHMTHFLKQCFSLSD
Test: ELISA, biotinylated FAP extracellular domain on streptavidin strips, detection with anti-Myc 9E10
Experimental: ELISA: Streptawell High Bind strips (Roche) were coated with biotinylated Human or Mouse FAP extracellular domain at 100 nM. Cross reactivity with human and murine antigen of the anti-FAP F5 antibody was assessed by detection with the anti-Myc antibody 9E10 and an HRP-conjugated anti-Murine Fc antibody (Sigma). Calorimetric detection of antibody-antigen binding was performed using BM-Blue POD soluble substrate (Roche).

B1: antibody F5 (in scFv format) (scFv, V domains shown)
VH: EVQLLESGGGLVQPGGSLRLSCAASGFTFSPAYMSWVRQAPGKGLEWVSAISGSGGSTYYADSVKGRFTISRDNSKNTLYLQMNSLRAEDTAVYYCAKGWRAFDYWGQGTLVTVSS
VL: EIVLTQSPGTLSLSPGERATLSCRASQSVSRNYLAWYQQKPGQAPRLLIYGASSRATGIPDRFSGSGSGTDFTLTISRLEPEDFAVYYCQQSLGYPPTFGQGTKVEIK
notes: Tested as a single-chain Fv; Detection with anti-Myc antibody 9E10 implies a myc tag; also called F5 antibody; anti-FAP F5 antibody
  binding result: binds

From patent publication US20180186891A1 (PHILOGEN, published 2018)
